Reference: patent US20200048358A1 (ALLIGATOR BIOSCIENCE, published 2020)
Changes are numbered by the printed parent chain.

T1: construct 84: Construct containing the full length OX40 sequence (human, UniProt P43489 29-277)
T1 construct: On transiently transfected FreeStyle 293-F cells; also called human OX40 (full length, on 293-F cells)
T1 sequence: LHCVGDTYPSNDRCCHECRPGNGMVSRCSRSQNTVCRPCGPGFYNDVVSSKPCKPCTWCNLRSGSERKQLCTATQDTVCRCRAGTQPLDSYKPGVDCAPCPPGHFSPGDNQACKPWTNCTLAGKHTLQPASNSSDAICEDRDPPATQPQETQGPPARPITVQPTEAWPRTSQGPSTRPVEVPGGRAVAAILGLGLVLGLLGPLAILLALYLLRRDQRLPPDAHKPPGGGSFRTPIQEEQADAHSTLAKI

T2: chimeric OX40 construct 1545: Human OX40 with mouse domains 1B, 2A and 2B (aa 43-107) (human; mouse, UniProt P47741 39-103)
T2 construct: domain: 1B, 2A and 2B; On 293-F cells; limits derived as for 1544
T2 sequence: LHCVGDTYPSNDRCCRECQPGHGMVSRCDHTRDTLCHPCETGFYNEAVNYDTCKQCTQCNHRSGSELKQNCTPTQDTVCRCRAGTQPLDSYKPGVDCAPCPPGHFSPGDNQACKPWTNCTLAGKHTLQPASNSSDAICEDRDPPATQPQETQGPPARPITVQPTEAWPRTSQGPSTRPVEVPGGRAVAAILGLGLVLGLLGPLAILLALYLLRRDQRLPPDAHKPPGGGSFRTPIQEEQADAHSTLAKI

T3: chimeric OX40 construct 1548: Human OX40 with mouse module 3 and domains 4A and 4B (aa 108-167) (human; mouse, UniProt P47741 104-165)
T3 construct: domain: module 3 and domains 4A and 4B; On 293-F cells; limits derived as for 1544
T3 sequence: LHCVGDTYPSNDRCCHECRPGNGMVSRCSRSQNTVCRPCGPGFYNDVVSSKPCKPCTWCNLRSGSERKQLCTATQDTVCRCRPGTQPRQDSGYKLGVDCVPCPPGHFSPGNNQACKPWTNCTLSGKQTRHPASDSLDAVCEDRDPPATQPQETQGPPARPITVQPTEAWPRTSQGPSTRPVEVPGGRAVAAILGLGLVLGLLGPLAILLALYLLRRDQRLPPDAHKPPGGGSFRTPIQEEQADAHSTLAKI

T4: chimeric OX40 construct 1544: Human OX40 with mouse domains 1A, 1B and 2A (aa 30-81) (human; mouse, UniProt P47741 26-77)
T4 construct: domain: 1A, 1B and 2A; On transiently transfected FreeStyle 293-F cells
T4 sequence: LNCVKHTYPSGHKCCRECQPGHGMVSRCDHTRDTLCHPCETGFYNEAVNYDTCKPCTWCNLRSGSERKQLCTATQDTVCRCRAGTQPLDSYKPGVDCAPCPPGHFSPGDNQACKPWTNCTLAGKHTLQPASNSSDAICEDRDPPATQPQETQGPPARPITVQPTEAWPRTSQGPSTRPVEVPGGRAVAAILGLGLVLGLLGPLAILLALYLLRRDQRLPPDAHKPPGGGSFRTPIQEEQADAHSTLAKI

T5: chimeric OX40 construct 1546: Human OX40 with mouse domains 2A, 2B and module 3 (aa 66-126) (human; mouse, UniProt P47741 62-124)
T5 construct: domain: 2A, 2B and module 3; On 293-F cells; limits derived as for 1544
T5 sequence: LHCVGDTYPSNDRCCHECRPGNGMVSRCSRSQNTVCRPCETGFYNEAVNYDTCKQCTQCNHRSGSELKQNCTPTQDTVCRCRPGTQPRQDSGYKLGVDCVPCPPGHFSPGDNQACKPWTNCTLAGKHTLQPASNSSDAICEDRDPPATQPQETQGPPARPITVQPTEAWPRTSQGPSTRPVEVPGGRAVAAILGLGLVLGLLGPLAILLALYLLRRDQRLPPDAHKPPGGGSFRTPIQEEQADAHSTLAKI

T6: chimeric OX40 construct 1547: Human OX40 with mouse domain 2B, module 3 and domain 4A (aa 83-141) (human; mouse, UniProt P47741 79-139)
T6 construct: domain: 2B, module 3 and domain 4A; On 293-F cells; limits derived as for 1544
T6 sequence: T5 sequence with E40G, T41P, E46D, A47V, N49S, Y50S, D51K, T52P, D111N

B1: bispecific molecule 1526/1585 (bispecific antibody, human IgG1, kappa)
heavy: not shown
light: DIQMTQSPSSLSASVGDRVTITCRASQSISSYLNWYQQKPGKAPKLLIYAASSLQSGVPSRFSGSGSGTDFTLTISSLQPEDFATYYCQQYGSDSLLTFGQGTKLEIKRTVAAPSVFIFPPSDEQLKSGTASVVCLLNNFYPREAKVQWKVDNALQSGNSQESVTEQDSKDSTYSLSSTLTLSKADYEKHKVYACEVTHQGLSSPVTKSFNRGECSGGGGSGGGGSAPLKIQAYFNETADLPCQFANSQNLSLSELVVFWQDQENLVLNEVYLGKERFDSVDSKYMGRTSFDSDSWTLRLHNLQIKDKGRYQCIIHHKKPTGMINIHQMNSELSVLA
B2: human OX40L (hOX40L, RnD Systems) (ligand, UniProt P23510 51-183, looked up)
chain: QVSHRYPRIQSIKVQFTEYKKEKGFILTSQKEDEIMKVQNNSVIINCDGFYLISLKGYFSQEVNISLHYQKDEEPLFQLKKVRSVNSLMVASLTYKDKVYLNVTTDNTSLDDFHVNGGELILIHQNPGEFCVL
notes: also called human OX40 ligand
B3: anti-OX40 antibody 1526/1527 (antibody, V domains shown)
VH: EVQLLESGGGLVQPGGSLRLSCAASGFTFSGYSMYWVRQAPGKGLEWVSGIGYSGYGTYYADSVKGRFTISRDNSKNTLYLQMNSLRAEDTAVYYCARYYFHDYAAYSLDYWGQGTLVTVSS
VL: DIQMTQSPSSLSASVGDRVTITCRASQSISSYLNWYQQKPGKAPKLLIYAASSLQSGVPSRFSGSGSGTDFTLTISSLQPEDFATYYCQQYGSDSLLTFGQGTKLEIK
notes: Tested as IgG
B4: anti-OX40 antibody 1482/1483 (antibody, V domains shown)
VH: EVQLLESGGGLVQPGGSLRLSCAASGFTFSSYAMSWVRQAPGKGLEWVSYISYYSGYTYYADSVKGRFTISRDNSKNTLYLQMNSLRAEDTAVYYCARGYGYLDYWGQGTLVTVSS
VL: DIQMTQSPSSLSASVGDRVTITCRASQSISSYLNWYQQKPGKAPKLLIYAASSLQSGVPSRFSGSGSGTDFTLTISSLQPEDFATYYCQQYGSLLTFGQGTKLEIK
notes: Tested as IgG
B5: anti-OX40 antibody 1168/1135 (antibody, V domains shown)
VH: EVQLLESGGGLVQPGGSLRLSCAASGFTFSGSSMSWVRQAPGKGLEWVSSISYYGGYTYYADSVKGRFTISRDNSKNTLYLQMNSLRAEDTAVYYCARYFPHYYFDYWGQGTLVTVSS
VL: not shown
notes: Tested as IgG
B6: anti-OX40 antibody 1542/1135 (antibody, V domains shown)
VH: EVQLLESGGGLVQPGGSLRLSCAASGFTFGSSSMYWVRQAPGKGLEWVSGIGYYSYSTSYADSVKGRFTISRDNSKNTLYLQMNSLRAEDTAVYYCARGYPHHYFDYWGQGTLVTVSS
VL: not shown
notes: Tested as IgG

Molecular target: CTLA-4 (BMS, Orencia) (human, UniProt P16410 38-152)
Sequence (P16410 38-152 limits assumed): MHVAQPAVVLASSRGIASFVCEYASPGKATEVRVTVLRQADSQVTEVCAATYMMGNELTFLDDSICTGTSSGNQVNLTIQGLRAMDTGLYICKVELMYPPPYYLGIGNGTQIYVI
Experiment: cell-based or functional assay

Binder	Mean IL-2 level (pg/ml) induced at 1.5 nM bispecific antibody or control [pg/mL]
B1	3200

Molecular target: T1, construct 84: Construct containing the …
Experiment: flow cytometry on human/mouse OX40 chimeras
Description: (§1) The mouse/human chimeras were transiently transfected into FreeStyle 293-F cells (Invitrogen), incubated 48 hours in FreeStyle 293 expression medium (Invitrogen) 37 C, 8% CO₂, 135 rpm. The transfected cells were incubated with human OX40 antibodies, human OX40L (hOX40L, RnD Systems), mouse OX40L (mOX40L, RnD Systems) and controls for 30 min 4° C. and then detected with a-huIgG-PE (Jackson lmmunoresearch) 30 min 4° C. Cells were analyzed with FACS Verse (BD Biosciences). Binding to the different chimeric constructs were calculated as relative (mean fluorescence intensity) MFI compared to the binding of the isotype control.

Binder	binding result
B2	binds

Molecular target: T2, chimeric OX40 construct 1545: Human …
Experiment: flow cytometry, transfected 293-F cells
Description: as §1

Binder	relative MFI compared to isotype control
B3	1.3
B4	44.4
B5	46.6
B6	40.2

Molecular target: T1, construct 84: Construct containing the …
Experiment: flow cytometry, transfected 293-F cells
Description: as §1

Binder	relative MFI compared to isotype control
B3	21.4
B4	24.9
B5	29.6
B6	29.4

Molecular target: T3, chimeric OX40 construct 1548: Human …
Experiment: flow cytometry, transfected 293-F cells
Description: as §1

Binder	relative MFI compared to isotype control
B3	12.7
B4	1.1
B5	1
B6	1.2

Molecular target: T4, chimeric OX40 construct 1544: Human …
Experiment: flow cytometry, transfected 293-F cells
Description: as §1

Binder	relative MFI compared to isotype control
B3	1.1
B4	8.4
B5	13.2
B6	7.1

Molecular target: T5, chimeric OX40 construct 1546: Human …
Experiment: flow cytometry, transfected 293-F cells
Description: as §1

Binder	relative MFI compared to isotype control
B3	0.9
B4	0.9
B5	0.9
B6	0.9

Molecular target: T6, chimeric OX40 construct 1547: Human …
Experiment: flow cytometry, transfected 293-F cells
Description: as §1

Binder	relative MFI compared to isotype control
B3	1
B4	1
B5	1
B6	1
